Assay: Thermal shift stability assay (TSSA), aggregation temperature
Assay type: physicochemical
Parameters: unit not given here
Conditions: for Tagg run1 / Tagg run2 / Tagg run3: mAb2 VH/Vk, human IgG1 Fc mutation formats, temperature of aggregation; for Tagg Mean: mean of run1-run3
Protocol: The resulting antibodies were tested for stability in the following reference formulation at a concentration of approximatively 7 mg/mL: pH 6.0; histidine buffer (10 mM); sucrose (200 mM); NaCl (50 mM); Polysorbate 80 (PS80) (0.2 g/L). […] So for this study the concentration is set at 0.2 g/L. The stability of the formulations was monitored in two storage conditions (at +5° C.±3° C. and at +40±3° C. For each study, 3 times point were performed: TO, T15D (15 days) and T1M (1 month). A freeze thaw (F/T) and a thermal shift stability assay (TSSA) were conducted for the format comparison. To perform F/T cycles, the samples were frozen at least 2 hours at −20° C. and thawed at least 1 hour at room temperature, the F/T cycle is repeated three times and samples are tested 24 h after the last Freeze/Thaw cycle. At each time point, the following tests were performed: • Particulate Matter (MFI) • Visual Inspection (Appearance) • Impurities (SE-HPLC) • Turbidity (400 nm) • Protein Concentration (280 nm) (performed with Nanodrop, Thermo Fisher Scientific Inc.)
These aromatic residues confer a relatively high predicted hydrophobicity to the antibody. However, the aromatic residues in these antibodies are believed to be important for antibody function and can probably not be replaced by a non-aromatic residue without a reduction or loss of activity. […] Aggregation temperature is correlated with the intrinsic stability. The higher the TAgg, the higher the stability of the protein. […] The stability of each of the Fc domain of human IgG1 isotype comprises an amino acid substitution at Kabat residue(s) 234, 235, 237, 330 and/or 331 (L234A/L235E/P331S substitutions, L234F/L235E/P331S substitutions, L234A/L235E/G237A/P331S substitutions, and L234A/L235E/G237A/A330S/P331S substitutions) improved the antibody, as shown in the table below. Such mutations can therefore enhance the pharmacological properties and/or activity of the antibody.

Row | Molecule | Tagg run1 | Tagg run2 | Tagg run3 | Tagg Mean
1 | L234F/L235E/P331S: mAb2 variable regions as human IgG1 with L234F/L235E/P331S; heavy chain SEQ ID NO: 26, light chain SEQ ID NO: 9 (antibody, Chimeric) heavy: QVQLVQSGSELKKPGASVKVSCKASGYTFTHYGMNWVRQAPGQGLKWMGWINTYTGEPTYADDFKGRFVFSLDTSVSTAYLQISSLKAEDTAVYYCARRRYEGNYVFYYFDYWGQGTTVTVSSASTKGPSVFPLAPSSKSTSGGTAALGCLVKDYFPEPVTVSWNSGALTSGVHTFPAVLQSSGLYSLSSVVTVPSSSLGTQTYICNVNHKPSNTKVDKRVEPKSCDKTHTCPPCPAPEFEGGPSVFLFPPKPKDTLMISRTPEVTCVVVDVSHEDPEVKFNWYVDGVEVHNAKTKPREEQYNSTYRVVSVLTVLHQDWLNGKEYKCKVSNKALPASIEKTISKAKGQPREPQVYTLPPSREEMTKNQVSLTCLVKGFYPSDIAVEWESNGQPENNYKTTPPVLDSDGSFFLYSKLTVDKSRWQQGNVFSCSVMHEALHNHYTQKSLSLSPGK VL: DIQMTQSPSSLSASVGDRVTITCRASENIYSYFSWYQQKPGKAPKLLIYTAKTLAEGVPSRFSGSGSGTDFTLTISSLQPEDFATYYCQHHYVTPYTFGGGTKVEIK | 67.65 | 67.87 | 68.34 | 68.0
2 | L234A/L235E/G237A/P331S: mAb2 variable regions as human IgG1 with L234A/L235E/G237A/P331S; heavy chain SEQ ID NO: 29, light chain SEQ ID NO: 9 (antibody, Chimeric) heavy: QVQLVQSGSELKKPGASVKVSCKASGYTFTHYGMNWVRQAPGQGLKWMGWINTYTGEPTYADDFKGRFVFSLDTSVSTAYLQISSLKAEDTAVYYCARRRYEGNYVFYYFDYWGQGTTVTVSSASTKGPSVFPLAPSSKSTSGGTAALGCLVKDYFPEPVTVSWNSGALTSGVHTFPAVLQSSGLYSLSSVVTVPSSSLGTQTYICNVNHKPSNTKVDKRVEPKSCDKTHTCPPCPAPEAEGAPSVFLFPPKPKDTLMISRTPEVTCVVVDVSHEDPEVKFNWYVDGVEVHNAKTKPREEQYNSTYRVVSVLTVLHQDWLNGKEYKCKVSNKALPASIEKTISKAKGQPREPQVYTLPPSREEMTKNQVSLTCLVKGFYPSDIAVEWESNGQPENNYKTTPPVLDSDGSFFLYSKLTVDKSRWQQGNVFSCSVMHEALHNHYTQKSLSLSPGK VL: DIQMTQSPSSLSASVGDRVTITCRASENIYSYFSWYQQKPGKAPKLLIYTAKTLAEGVPSRFSGSGSGTDFTLTISSLQPEDFATYYCQHHYVTPYTFGGGTKVEIK | 66.08 | 66.55 | 66.29 | 66.3
3 | L234A/L235E/P331S: mAb2 variable regions as human IgG1 with L234A/L235E/P331S; heavy chain SEQ ID NO: 27, light chain SEQ ID NO: 9 (antibody, Chimeric) heavy: QVQLVQSGSELKKPGASVKVSCKASGYTFTHYGMNWVRQAPGQGLKWMGWINTYTGEPTYADDFKGRFVFSLDTSVSTAYLQISSLKAEDTAVYYCARRRYEGNYVFYYFDYWGQGTTVTVSSASTKGPSVFPLAPSSKSTSGGTAALGCLVKDYFPEPVTVSWNSGALTSGVHTFPAVLQSSGLYSLSSVVTVPSSSLGTQTYICNVNHKPSNTKVDKRVEPKSCDKTHTCPPCPAPEAEGGPSVFLFPPKPKDTLMISRTPEVTCVVVDVSHEDPEVKFNWYVDGVEVHNAKTKPREEQYNSTYRVVSVLTVLHQDWLNGKEYKCKVSNKALPASIEKTISKAKGQPREPQVYTLPPSREEMTKNQVSLTCLVKGFYPSDIAVEWESNGQPENNYKTTPPVLDSDGSFFLYSKLTVDKSRWQQGNVFSCSVMHEALHNHYTQKSLSLSPGK VL: DIQMTQSPSSLSASVGDRVTITCRASENIYSYFSWYQQKPGKAPKLLIYTAKTLAEGVPSRFSGSGSGTDFTLTISSLQPEDFATYYCQHHYVTPYTFGGGTKVEIK | 66.50 | 66.91 | 67.77 | 67.1
4 | L234A/L235E/G237A/A330S/P331S: mAb2 variable regions as human IgG1 with L234A/L235E/G237A/A330S/P331S; heavy chain SEQ ID NO: 28, light chain SEQ ID NO: 9 (antibody, Chimeric) heavy: QVQLVQSGSELKKPGASVKVSCKASGYTFTHYGMNWVRQAPGQGLKWMGWINTYTGEPTYADDFKGRFVFSLDTSVSTAYLQISSLKAEDTAVYYCARRRYEGNYVFYYFDYWGQGTTVTVSSASTKGPSVFPLAPSSKSTSGGTAALGCLVKDYFPEPVTVSWNSGALTSGVHTFPAVLQSSGLYSLSSVVTVPSSSLGTQTYICNVNHKPSNTKVDKRVEPKSCDKTHTCPPCPAPEAEGAPSVFLFPPKPKDTLMISRTPEVTCVVVDVSHEDPEVKFNWYVDGVEVHNAKTKPREEQYNSTYRVVSVLTVLHQDWLNGKEYKCKVSNKALPSSIEKTISKAKGQPREPQVYTLPPSREEMTKNQVSLTCLVKGFYPSDIAVEWESNGQPENNYKTTPPVLDSDGSFFLYSKLTVDKSRWQQGNVFSCSVMHEALHNHYTQKSLSLSPGK VL: DIQMTQSPSSLSASVGDRVTITCRASENIYSYFSWYQQKPGKAPKLLIYTAKTLAEGVPSRFSGSGSGTDFTLTISSLQPEDFATYYCQHHYVTPYTFGGGTKVEIK | 66.35 | 67.58 | 67.07 | 67.0

Reference: US20190071514A1, “ANTI-CD39 ANTIBODIES” (INNATE PHARMA, priority 2016, published 2019)
